Test results from patent publication US20230331835A1 (published 2023).

What was measured:
BMECs [1] = experiment: cell binding, apparent equilibrium affinity; apparent Kd; 95% CI 128-179
BMECs [2] = experiment: cell binding, apparent equilibrium affinity; apparent Kd; 95% CI 19-36
BMECs [3] = experiment: cell binding, apparent equilibrium affinity; apparent Kd; 95% CI 29-47
BMECs [4] = experiment: cell binding, apparent equilibrium affinity; apparent Kd; 95% CI 30-74
BMECs [5] = experiment: cell binding, apparent equilibrium affinity; apparent Kd; 95% CI 27-60

B1: 46.1 (Fc fusion)
chain: QVQLQESGGGLAQPGGSLRLSCAASGFTFSGYWMHWVRQAPGKGLVWVSRIKGDGTDIEYADSVKGRFTISRDNAKNTLYLQMNSLRAEDTAVYYCARDLRQTHWFDSWGQGTLVTVSSGGGGSGGGGSGGGGSQSALTQDPAVSVALGQTVRITCQGDSLRSYYASWYQQKPGQAPVLVMYGENSRPSGIPDRFSGSNSGNTASLIITGAQAEDEADYYCSSRDTSGNHVLFGGGTKLTVLG
In the case of B1, the Kd (BMECs [1]) is reported as 153 nM.

B2: 17 (Fc fusion)
chain: QVQLLQSAGALVQPGGSLRLSCAASGFTFSSSTMHWVRQAPGKGLEWVAVVSYDGNTQYYADSVKGRFTISRDNSKNTLSLQMNNLRAEDTAVYYCAGLWGSLLGYFQHWGQGTLVTVSSGGGGSGGGGSGGGGSDIQMTQSPSFLSASVGDRVTITCRASQGVNNYLAWYQQKPGKAPKLLIYAASTLQSGVPSSFSGSGSGTEFTLTISSLQPEDFATYFCQQAHSFPPTFGGGTKLEIKR
In the case of B2, the Kd (BMECs [2]) is reported as 28 nM.

B3: 26 (Fc fusion)
chain: QVELVESGGGLVQPGGSLRLSCAASGFTFSTYWMNWVRQAPGKGLEWVAIINQDGTAEYYVDSVEGRFTISRDNAKNSLYLQMTSLRVEDTAVYYCATPTGDSDYWGQGTLVTVSSGGGGSGGGGSGGGGSSELTQDPAVSVALGQTVRITCQGDSLRSYYATWYQQKPGQAPVAVIYGQNNRPSGIPDRFSGSNSGNTASLTITAALAEDEADYYCHSRDSSGNHVLFGGGTKLTVLG
For B3, the Kd (BMECs [3]) was 38 nM.

B4: 3 (Fc fusion)
chain: QVQLQESGGGVVQPGRSLRLSCAASGFTFSSYAMHWVRQAPGKGLEWVAVISYDGSNKYYADSVKGRFTISRDNSKNTLYLQMNSLRAEDTAVYYCARDSKGQSVRNRFDPWGQGTLVTVSSGGGGSGGGGSGGGGSSELTQDPAVSVALGQTVRITCQGDNLRSYYASWYQQRPGQAPILVLYANTHRPSSIPDRFSGSSSGNTASLTITGAQAEDEADYYCNSRDSSGNLVVFGGGTKLTVLG
With B4 the Kd (BMECs [4]) was 52 nM.

B5: 9 (Fc fusion)
chain: QVQLVESGGGVTQPGLSLRLSCAASGFTFSSYAMSWVRQAPGKGLEWVSAISGSGGSTYYADSVKGRFTISRDNSKNTLYLQMNSLRAEDTAVYYCARGWKYFDYWGQGTLVTVSSSGGGSGGGGSGGGGSETTLTQSPSTLSASIGDRVAITCRASEGIYHWLAWYQQKPGKAPKLLIYKASSLASGAPSRFSGSGSGTDFTLTISSLQPDDFATYYCQQYHTISRTFGPGTKVEIKR
With B5 the Kd (BMECs [5]) was 44 nM.
